Data reported in publication PMC10185811.

What was measured:
[1] = target: GST-NUB1L, Q9Y5A7-1; assay: Octet (BLI); details: GST-NUB1L on the sensor; His6-RPN1 variant in solution; parent: est. 0.58; read off a plot
[2] = target: GST-RAD23 (UniProt P54727); assay: Octet (BLI); details: GST-RAD23 on the sensor; GST control curve in the same panel reaches est. 0.21 nm (above the T1 curve); read off a plot
[3] = target: His6-RPN1 WT (human) (UniProt Q13200); assay: BLI; Octet; His6-RPN1 loaded on the nickel sensor; NUB1L, GST-FAT10, NUB1L with GST-FAT10 or NUB1L with GST in solution; Octet buffer (PBS, 0.1% Triton X-100, 1x ROTIBlock); 1:1 binding model

His6-RPN1 WT, sequence (Q13200 whole entry, change not shown): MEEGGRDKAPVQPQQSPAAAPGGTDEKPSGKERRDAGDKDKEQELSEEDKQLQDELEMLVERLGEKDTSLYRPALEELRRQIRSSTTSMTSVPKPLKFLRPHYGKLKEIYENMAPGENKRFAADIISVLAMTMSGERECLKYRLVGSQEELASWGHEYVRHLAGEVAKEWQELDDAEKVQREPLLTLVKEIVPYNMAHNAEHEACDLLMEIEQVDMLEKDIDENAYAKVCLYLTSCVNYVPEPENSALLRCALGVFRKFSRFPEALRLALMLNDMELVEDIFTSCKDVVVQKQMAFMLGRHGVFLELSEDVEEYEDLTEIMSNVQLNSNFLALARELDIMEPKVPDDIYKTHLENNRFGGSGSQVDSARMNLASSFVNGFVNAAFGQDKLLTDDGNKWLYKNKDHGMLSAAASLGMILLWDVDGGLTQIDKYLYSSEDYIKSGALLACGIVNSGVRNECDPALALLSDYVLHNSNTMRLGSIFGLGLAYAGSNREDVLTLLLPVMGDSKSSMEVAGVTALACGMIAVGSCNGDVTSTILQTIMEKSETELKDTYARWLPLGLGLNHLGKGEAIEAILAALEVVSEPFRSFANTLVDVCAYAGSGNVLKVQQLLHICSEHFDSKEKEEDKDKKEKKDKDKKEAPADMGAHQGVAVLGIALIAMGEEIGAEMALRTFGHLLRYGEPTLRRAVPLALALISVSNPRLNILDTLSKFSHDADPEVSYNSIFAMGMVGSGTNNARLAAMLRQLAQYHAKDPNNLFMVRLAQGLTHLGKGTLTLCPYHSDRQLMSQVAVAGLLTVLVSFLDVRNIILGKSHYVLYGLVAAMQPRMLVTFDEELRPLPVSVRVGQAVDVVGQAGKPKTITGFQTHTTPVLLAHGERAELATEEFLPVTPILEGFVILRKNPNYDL
GST-NUB1L, Q9Y5A7-1, sequence (Q9Y5A7 whole entry): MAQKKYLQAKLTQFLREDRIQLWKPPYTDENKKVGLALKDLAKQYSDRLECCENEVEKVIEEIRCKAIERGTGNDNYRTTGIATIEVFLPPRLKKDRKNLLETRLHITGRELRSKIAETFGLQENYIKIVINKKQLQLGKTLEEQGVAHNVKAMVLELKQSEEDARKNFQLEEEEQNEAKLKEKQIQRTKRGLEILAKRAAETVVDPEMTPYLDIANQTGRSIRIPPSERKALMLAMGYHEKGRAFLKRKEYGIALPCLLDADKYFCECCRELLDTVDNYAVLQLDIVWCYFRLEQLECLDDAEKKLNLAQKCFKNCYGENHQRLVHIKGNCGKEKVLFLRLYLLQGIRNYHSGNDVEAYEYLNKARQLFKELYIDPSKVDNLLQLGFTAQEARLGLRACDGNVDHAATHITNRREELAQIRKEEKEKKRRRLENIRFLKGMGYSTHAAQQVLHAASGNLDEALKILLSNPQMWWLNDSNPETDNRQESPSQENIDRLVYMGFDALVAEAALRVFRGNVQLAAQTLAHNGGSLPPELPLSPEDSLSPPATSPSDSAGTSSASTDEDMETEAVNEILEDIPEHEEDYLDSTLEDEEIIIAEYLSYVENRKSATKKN
NUB1L-bound GST-FAT10 (NUB1L co-incubated with GST-FAT10), sequence (Q9Y5A7 whole entry): as above
NUB1L-bound GST-FAT10 (NUB1L co-incubated with GST-FAT10), sequence (O15205 whole entry): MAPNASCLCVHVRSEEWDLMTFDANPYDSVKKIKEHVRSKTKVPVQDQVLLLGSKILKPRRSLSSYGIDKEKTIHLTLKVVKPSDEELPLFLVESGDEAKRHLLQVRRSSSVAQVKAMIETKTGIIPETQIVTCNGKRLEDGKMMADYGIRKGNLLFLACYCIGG
GST-RAD23, sequence (P54727 whole entry): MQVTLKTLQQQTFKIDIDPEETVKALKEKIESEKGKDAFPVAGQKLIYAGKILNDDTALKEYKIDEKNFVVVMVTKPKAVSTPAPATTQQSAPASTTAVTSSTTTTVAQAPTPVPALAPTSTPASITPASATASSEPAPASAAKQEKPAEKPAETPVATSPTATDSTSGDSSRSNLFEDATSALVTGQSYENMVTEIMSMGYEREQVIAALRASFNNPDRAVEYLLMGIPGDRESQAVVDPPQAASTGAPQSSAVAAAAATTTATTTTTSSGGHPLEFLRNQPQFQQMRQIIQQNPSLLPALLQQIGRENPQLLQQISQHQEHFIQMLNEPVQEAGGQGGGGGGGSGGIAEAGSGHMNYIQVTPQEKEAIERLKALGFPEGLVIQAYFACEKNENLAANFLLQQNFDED

| Substance | response [1] [nm] | response [2] [nm] | fold increase of the affinity for RPN1 against NUB1L alone [3] [fold] |
| --- | --- | --- | --- |
| His6-RPN1 WT (from UniProt Q13200) T1 | 0.37 | 0.19 |  |
| NUB1L-bound GST-FAT10 (NUB1L co-incubated with GST-FAT10) (from UniProt Q9Y5A7-1 1-615; O15205 1-165) (complex) |  |  | 4 |
